Target: REK7 (endogenous, on rat E16 cortical neurons) (rat)
Test: cell-based or functional assay

soluble AL-1 (purified from BT20 conditioned medium) (ligand)
tyrosine autophosphorylation of REK7 (immunoprecipitation with anti-REK7, anti-phosphotyrosine blot): 2 fold
